According to patent JP2015180626A (dated 2015):

Molecular target: RSV Fタンパク質 (RSV A2ウイルス) (respiratory syncytial virus (RSV) A2, UniProt P03420 26-574)
Test: cell-based or functional assay

Sequence of RSV Fタンパク質 (RSV A2ウイルス) (P03420 26-574): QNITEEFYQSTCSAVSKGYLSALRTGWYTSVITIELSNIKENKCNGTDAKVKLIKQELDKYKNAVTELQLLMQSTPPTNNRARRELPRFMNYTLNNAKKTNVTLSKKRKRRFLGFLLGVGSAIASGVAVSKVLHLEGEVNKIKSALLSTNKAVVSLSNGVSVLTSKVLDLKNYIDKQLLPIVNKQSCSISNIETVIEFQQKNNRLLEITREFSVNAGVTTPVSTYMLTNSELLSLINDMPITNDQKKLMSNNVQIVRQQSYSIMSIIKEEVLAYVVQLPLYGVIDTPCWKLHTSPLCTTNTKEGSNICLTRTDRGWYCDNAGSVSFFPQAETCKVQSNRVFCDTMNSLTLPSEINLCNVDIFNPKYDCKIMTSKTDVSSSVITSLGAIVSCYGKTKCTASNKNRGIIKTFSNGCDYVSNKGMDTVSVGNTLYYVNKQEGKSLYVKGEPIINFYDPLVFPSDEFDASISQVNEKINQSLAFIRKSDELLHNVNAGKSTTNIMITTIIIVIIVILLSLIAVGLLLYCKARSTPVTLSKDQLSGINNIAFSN

B1: AM22 (antibody, V domains shown)
VH: QVQLVQSGAEVKKPGATVKVSCKISGHTLIKLSIHWVRQAPGKGLEWMGGYEGEVDEIFYAQKFQHRLTVIADTATDTVYMELGRLTSDDTAVYFCGTLGVTVTEAGLGIDDYWGQGTLVTVSS
VL: EIVLTQSPGTLSLSPGERATLSCRASQIVSRNHLAWYQQKPGQAPRLLIFGASSRATGIPVRFSGSGSGTDFTLTINGLAPEDFAVYYCLSSDSSIFTFGPGTKVDFK
RSV-A2ウイルスに対する中央値半分最大阻害濃度(IC 50 ) (neutralisation of RSV A2 on HEp2 cells): 1.15 ng/mL
